Test results taken from the supplement of paper PMC6757056.
± gives the standard deviation of the averaged measurements.

B1: library; a variant is named by its letters at N, in order (parent)
chain: GCUGUCACCGAGAAACUGUGAAGUAUAUCUUAAACCUGGGCACUUAAAAGAUAUAUGGAGUUAGUAGUGCAACCUGCUCGGUCUGAUGAGUCCNNNNNNGGACGAAACAGC

What was measured:
cyclic di-GMP [1] = variants of: B1; experiment: normalized RNA/DNA level without ligand (relative to sTRSVctl = 100) (log10 (% of sTRSVctl)); HEK293T; ligand: cyclic di-GMP (c-di-GMP-II aptamer); higher = less ribozyme self-cleavage, higher mRNA level; details: reporter: mCherry (pCS4076), ligand present: no
Procedure, shortened: (§1)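 HEK293T cells were transfected with library plasmids carrying ribozyme switches linked to an mCherry reporter, or an eGFP reporter in some ligand experiments, at 4 µg per well of a 6-well plate, with any ligand added 1 h beforehand. After 72 h, total RNA was extracted with EDTA, reverse-transcribed, amplified, barcoded and sequenced. RNA level was defined as RNA reads over DNA reads, normalized to a spiked-in non-cleaving sequence or to the top-ranked sequences. That value was multiplied by 100 and converted to log10, the top set was 25 sequences, and only sequences with ≥100 DNA reads were retained.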

cyclic di-GMP [2] = variants of: B1; experiment: normalized RNA/DNA level with ligand (relative to sTRSVctl = 100) (log10 (% of sTRSVctl)); HEK293T; ligand: cyclic di-GMP (c-di-GMP-II aptamer); ligand concentration (+) RNA-Seq: 1 mM; higher = less ribozyme self-cleavage, higher mRNA level; details: reporter: mCherry (pCS4076), ligand present: yes
Procedure, shortened: as §1

Row | Variant | normalized RNA/DNA level without ligand (log10) (cyclic di-GMP [1]) | normalized RNA/DNA level with ligand (log10) (cyclic di-GMP [2])
1 | GCUGUCACCGAGAAACUGUGAAGUAUAUCUUAAACCUGGGCACUUAAAAGAUAUAUGGAGUUAGUAGUGCAACCUGCUCGGUCUGAUGAGUCCACAUGUGGACGAAACAGC [ACAUGU] | 1.541 ± 0.01 | 1.69 ± 0.091
2 | GCUGUCACCGAGAAACUGUGAAGUAUAUCUUAAACCUGGGCACUUAAAAGAUAUAUGGAGUUAGUAGUGCAACCUGCUCGGUCUGAUGAGUCCAAAUACGGACGAAACAGC [AAAUAC] | 1.665 ± 0.0071 | 1.8 ± 0.11
3 | GCUGUCACCGAGAAACUGUGAAGUAUAUCUUAAACCUGGGCACUUAAAAGAUAUAUGGAGUUAGUAGUGCAACCUGCUCGGUCUGAUGAGUCCUUAUAAGGACGAAACAGC [UUAUAA] | 1.6409 ± 0.0011 | 1.81 ± 0.13
4 | GCUGUCACCGAGAAACUGUGAAGUAUAUCUUAAACCUGGGCACUUAAAAGAUAUAUGGAGUUAGUAGUGCAACCUGCUCGGUCUGAUGAGUCCUCAAGUGGACGAAACAGC [UCAAGU] | 1.52 ± 0.048 | 1.73 ± 0.1
5 | GCUGUCACCGAGAAACUGUGAAGUAUAUCUUAAACCUGGGCACUUAAAAGAUAUAUGGAGUUAGUAGUGCAACCUGCUCGGUCUGAUGAGUCCUAGUCAGGACGAAACAGC [UAGUCA] | 1.768 ± 0.017 | 1.91 ± 0.076
6 | GCUGUCACCGAGAAACUGUGAAGUAUAUCUUAAACCUGGGCACUUAAAAGAUAUAUGGAGUUAGUAGUGCAACCUGCUCGGUCUGAUGAGUCCCUAGCUGGACGAAACAGC [CUAGCU] | 1.72 ± 0.027 | 1.85 ± 0.13
7 | GCUGUCACCGAGAAACUGUGAAGUAUAUCUUAAACCUGGGCACUUAAAAGAUAUAUGGAGUUAGUAGUGCAACCUGCUCGGUCUGAUGAGUCCAGUUUGGGACGAAACAGC [AGUUUG] | 1.65 ± 0.088 | 1.77 ± 0.096
8 | GCUGUCACCGAGAAACUGUGAAGUAUAUCUUAAACCUGGGCACUUAAAAGAUAUAUGGAGUUAGUAGUGCAACCUGCUCGGUCUGAUGAGUCCUGGCCCGGACGAAACAGC [UGGCCC] | 1.88 ± 0.062 | 1.96 ± 0.094
9 | GCUGUCACCGAGAAACUGUGAAGUAUAUCUUAAACCUGGGCACUUAAAAGAUAUAUGGAGUUAGUAGUGCAACCUGCUCGGUCUGAUGAGUCCCUCUUUGGACGAAACAGC [CUCUUU] | 1.6 ± 0.071 | 1.76 ± 0.079
10 | GCUGUCACCGAGAAACUGUGAAGUAUAUCUUAAACCUGGGCACUUAAAAGAUAUAUGGAGUUAGUAGUGCAACCUGCUCGGUCUGAUGAGUCCUUUUAUGGACGAAACAGC [UUUUAU] | 1.7 ± 0.025 | 1.87 ± 0.095
11 | GCUGUCACCGAGAAACUGUGAAGUAUAUCUUAAACCUGGGCACUUAAAAGAUAUAUGGAGUUAGUAGUGCAACCUGCUCGGUCUGAUGAGUCCAUGCAGGGACGAAACAGC [AUGCAG] | 1.7646 ± 0.00074 | 1.89 ± 0.055
12 | GCUGUCACCGAGAAACUGUGAAGUAUAUCUUAAACCUGGGCACUUAAAAGAUAUAUGGAGUUAGUAGUGCAACCUGCUCGGUCUGAUGAGUCCAUACAGGGACGAAACAGC [AUACAG] | 1.59 ± 0.089 | 1.77 ± 0.04
13 | GCUGUCACCGAGAAACUGUGAAGUAUAUCUUAAACCUGGGCACUUAAAAGAUAUAUGGAGUUAGUAGUGCAACCUGCUCGGUCUGAUGAGUCCCCCUGAGGACGAAACAGC [CCCUGA] | 1.61 ± 0.068 | 1.82 ± 0.068
